Reference: the nanobody polyreactivity screen of Harvey et al. (2022)

Test: yeast display, Sf9 membrane polyspecificity reagent, FACS + sequencing; frameworks hold sequencing errors
Procedure, shortened: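 Sorting gates, low and high (top ~1%), were placed on anti-HA fluorescence to track expression and on streptavidin fluorescence to track reagent binding. A clone's polyreactivity label is taken from the gate it came out of. The reagent was 10% biotinylated, detergent-solubilized Sf9 membrane, applied for 1 hour at 4 °C to galactose-induced yeast display cells.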

For “QVQLVESGGGLVQAGGSLRLSCASSGSTFISYAMGWYRPAPGKERELVAAISRRGDSTYYADSVKGRFTISRDNAKNTVYLQMNSLKPEDSAVYYCNAVEWDDYYYSYADYGYSYDYWGQGTQVTVSS”, which “polyreactivity (PSR sort gate)” value is on record?
The value was “low polyreactivity”.

For “QVQLVESGGGLVQAGGSLRLSCASSGSTFPGNAMGWYRQAPGKERELVAAIRDRGTSTYYADSVKGRFTISRDNAKNNVYLQMNSLKPEDTAVYYCAAASRVAKGRWRLYDDWGQGTQVTVSS”, which “polyreactivity (PSR sort gate)” value is on record?
The value was “high polyreactivity”.

For “QVQLVESGGGLVQAGGSLRLSCASSGSTFPRYAMGWYRPAPGKETELVAAISSSGRTYYADSVKGRFTISRDNAKNTVFLQMNSLKPEDTAVYYCNAPVARGEASYYWGQGTQVTVSS”, which “polyreactivity (PSR sort gate)” value is on record?
The value was “high polyreactivity”.

Which “polyreactivity (PSR sort gate)” value does the source give for “QVQLVESGGGLVQAGGSLRLSCASSGSTFSIYAMGWYRQAPGKERELVAGISGSGGSTYYADSVKGRFTISRDNAKNTVYLQMNSLKPEDTAVYYCAKRVLWGLDYWGQGTQVTVSS” here?
The value was “low polyreactivity”.

Which “polyreactivity (PSR sort gate)” value does the source give for “QVQLVESGGGLVQAGGSLRLSCASSGSTFVPNTLGWYRQAPGKERELVAAISRSGGSTYYADSVKGRFTISRDNAKNTVYLQMNSLKPEDTAVYYCAARRFGYQGFAYGYWGQGTQVTVSS” here?
The value was “high polyreactivity”.

Which “polyreactivity (PSR sort gate)” value does the source give for “QVQLVESGGGLVQAGGSLRLSCASSGSTFVYNVMGRYRQAPGKERDLVAAISRSGGSTYYADSVKGRFTISRDNAKNSVYLQMNSLKPEDTAVYYCAKRVYGWWYDHWGQGTQVTVSS” here?
Its value is “high polyreactivity”.

Which “polyreactivity (PSR sort gate)” value does the source give for “QVQLVESGGGLVQAGGSLRLSCASSGSTFYFNAMGWYRQAPGKERELVAAITSSGGTTYYADSVKGRFTISRDNAKNTVYLQMNSLKPEDTAVFYCADWFSAYYSLYRHRGYWGHGTQVTVSS” here?
The value was “low polyreactivity”.

For “QVQLVESGGGLVQAGGSLRLSCASSGSTFYWNGMGWYRQAPGKERDLVADITWSGTSTNYADSVKGRFTISRDNAKNTVYLQMNSLKPEDTAVYYCAVSDFGLRDSLTIYDEYDYWGQGTQVTVSS”, which “polyreactivity (PSR sort gate)” value is on record?
The value was “high polyreactivity”.

Which “polyreactivity (PSR sort gate)” value does the source give for “QVQLVESGGGLVQAGGSLRLSCASSGSTLGVNAMGWYRQAPGKVRELVADISVRTDSTYYADSVKGRFTISRDNAKNTVYLQMNSLKPEDTAVYYCAADVPYYYPGFYSYYDDSDYWGQGTQVTVSS” here?
Its value is “low polyreactivity”.

For “QVQLVESGGGLVQAGGSLRLSCASSGYTFRYYAMGWYRQAPGKERELVAAITRRGATTYYADSVKGRFTISRDNAKNTVYLQMNRLQPEDTADYYCNAVYQYGSFVTAAGNYWGQGTQVTVSS”, which “polyreactivity (PSR sort gate)” value is on record?
The value was “high polyreactivity”.

For “QVQLVESGGGLVQAGGSLRLSCASSRINFYLYAMGWYRQAPGIERELVAAISRRGVSTYYADSVKGRFTISRDNAKNSVYLEMKSLKAEDTGVYYCAAAGFGYTGEEFWGQGTQVTVSS”, which “polyreactivity (PSR sort gate)” value is on record?
Its value is “high polyreactivity”.

With “QVQLVESGGGLVQAGGSLRLSCASYGRIIGIYAMGWSRPAHGKERELVATITDSDDSTYYADSVKGRFTISRDNAKNTVYLQMNSLKPEDTAVYFCATAFSYGGGAYDYWGHGTQVTVSS” as the sequence, how does the “polyreactivity (PSR sort gate)” value read?
Its value is “low polyreactivity”.

For “QVQLVESGGGLVQAGGSLRLSCATSGITFIGKYAMGWYRQAPGKERELVAAISWSGGRTYYADSVKGRFTISRDNAKNSDYLQMNSLKPEDTAVYYCAVYPRDAERYGYWGQGTQVTVSS”, which “polyreactivity (PSR sort gate)” value is on record?
The value was “high polyreactivity”.

Which “polyreactivity (PSR sort gate)” value does the source give for “QVQLVESGGGLVQAGGSLRLSCATSGRTLGGYAMGWYRHAPGKERELVASITSTSSTYADSVKGRFTISRDNAKNTVYLQMNSLKPEDTAVYYCAADPRRYRGFGYVYGGFYYWGQGTQVTVSS” here?
Its value is “low polyreactivity”.

For “QVQLVESGGGLVQAGGSLRLSCATSGSIFVFNAMGWYRQAPGKERELVAAIDTSDDITYYADSVKGRFTISRDNAKNTVYLQMNSLKPEDTAVYYCNAYYTYRFNYWGQGTQVTVSS”, which “polyreactivity (PSR sort gate)” value is on record?
The value was “high polyreactivity”.

Which “polyreactivity (PSR sort gate)” value does the source give for “QVQLVESGGGLVQAGGSLRLSCDASGFISFGNAMGWNRQAPRKERELVAGISRSGGSTYYADSVKGRFTISRDNAKNTVYLQMISLKPEDTAVYYCATRVAIYPYRFDYWGQGTQVTVSS” here?
Its value is “high polyreactivity”.

With “QVQLVESGGGLVQAGGSLRLSCDASGFTFARYNMGWYRQAPGKERELVAAISSRGSSTYYADSVKGRFTISRDNAKNTVYLQMNSLKAEDTAVYYCAAPPRYGYDYWGQGTQVTVSS” as the sequence, how does the “polyreactivity (PSR sort gate)” value read?
The value was “high polyreactivity”.

Which “polyreactivity (PSR sort gate)” value does the source give for “QVQLVESGGGLVQAGGSLRLSCDASGGPFYLNAMGWYRPAPGTERELVAGITWGGGRTYYADSVKGLFTISRDNAKNTVYLQMNSLKPEDTAVYYCAAGAWRGPYSGYYYWGQGTQVTVSS” here?
The value was “low polyreactivity”.

With “QVQLVESGGGLVQAGGSLRLSCDASGGTITNYAMGWYRQAPGKERELVAAITDSGATTYYADSVKGRFTISLVTAKNPVSLQMNSLKPEDTAVYDCNAELDLYTYFDYWGQGTQVTVSS” as the sequence, how does the “polyreactivity (PSR sort gate)” value read?
Its value is “low polyreactivity”.

For “QVQLVESGGGLVQAGGSLRLSCDASGIIFASYAMGWYRQAPGKERELVAAISGGGSTYYADSEKGRFTISRDNAKNTVYLQMNSLKPVDTAVYYCNAEAYYRWLTNIWYSDFDYWGLGTQVTVSS”, which “polyreactivity (PSR sort gate)” value is on record?
Its value is “low polyreactivity”.

For “QVQLVESGGGLVQAGGSLRLSCDASGIIFRGNSMGWYRQAPGKERELVAAISRSGRTNYADSVKGSFTISRDNAKNTVYLQMYSLKPEDTAVYYCAVDKRYGRVFGRDYDYWGQGTQVTESS”, which “polyreactivity (PSR sort gate)” value is on record?
The value was “high polyreactivity”.

With “QVQLVESGGGLVQAGGSLRLSCDASGIIIRWYAMGWYRQAPGKERELVAAITSSGGRTYYADSVKGRFTISRDNAKNTVYLQMNSLKPEDTAVYYCAAQRYSHLYRGRFAYRYYYWGQGTQVTVSS” as the sequence, how does the “polyreactivity (PSR sort gate)” value read?
The value was “high polyreactivity”.

For “QVQLVESGGGLVQAGGSLRLSCDASGITLRTYSIGWYRQAPGKERELVAAISKSGDRTYYADSVKGRFTISRDNAKNTVYLQMNSLKPEDNAVYYCAKATNAQYLYDYWGQGTHVTVSS”, which “polyreactivity (PSR sort gate)” value is on record?
The value was “low polyreactivity”.

For “QVQLVESGGGLVQAGGSLRLSCDASGLIFRPYARGWFRQAPGKERELVAAITSGGSTDYADSVKGRFTISRDNAKNTVYLLMNSLKPADTAVYYCNADIYPHDGYPWQGDYDYWGQGTQVTVSS”, which “polyreactivity (PSR sort gate)” value is on record?
The value was “low polyreactivity”.

For “QVQLVESGGGLVQAGGSLRLSCDASGLTFPSYAMGWYRQAPGKERELVAAISSGDSTNYADSVKGRFTISRDNAKNTVYLQMNSLKPEDTAVYYCAVGLPHGGRRLYGSWYRFDYWGQGTQVTVSS”, which “polyreactivity (PSR sort gate)” value is on record?
Its value is “low polyreactivity”.

With “QVQLVESGGGLVQAGGSLRLSCDASGLTFSFYVMGWYRQAPVKERELVAAISRSGTSTYYSDSVKGRFTISRDNAKNTVYLQMNSLKPEDTAVYYCADRGRWLYYLYELDYWGQGTQVTESS” as the sequence, how does the “polyreactivity (PSR sort gate)” value read?
Its value is “high polyreactivity”.

Which “polyreactivity (PSR sort gate)” value does the source give for “QVQLVESGGGLVQAGGSLRLSCDASGLTFSGYVMGWYRQAPGKESELVAAISLSGGSTYYADSVKGRFTISRDNAKNTVYLQMNSLKPEDTAVYYCAARTPFYNSYRRDYWGQGTQVTVSS” here?
Its value is “high polyreactivity”.

With “QVQLVESGGGLVQAGGSLRLSCDASGLTIYGYAIGSYRQAPGKERELVAAITSGDSTYYADSVKGRFTISRDTAKNTVYFQMNSLKPDDTAVYYCAAVGGYPRYGYWGQGTQVTVSS” as the sequence, how does the “polyreactivity (PSR sort gate)” value read?
Its value is “high polyreactivity”.

With “QVQLVESGGGLVQAGGSLRLSCDASGRIFSLYAMGWYRQAPGKERELVAAISRRSGNTNYADSVKGRFTISRDNAKNNVFLQLNSLKPEDTAVYFCAARPGAISSTSPYDYWGEGTQVTVSS” as the sequence, how does the “polyreactivity (PSR sort gate)” value read?
Its value is “high polyreactivity”.

With “QVQLVESGGGLVQAGGSLRLSCDASGRIFVVYAMGWSRQAPGKERELVAAITGGGRTNYADSVKGRFTISRDNAKNTVYLQMNSLKPEDTAVYYCAAGTRSDARRYYYWGQGTQVTVSS” as the sequence, how does the “polyreactivity (PSR sort gate)” value read?
Its value is “low polyreactivity”.

For “QVQLVESGGGLVQAGGSLRLSCDASGRTFGYYAMGWYRHAPGQERELVAGIRSSGGSTYYADSVKGRFTISRDNAKNTVYLQMNSLKPEDTAVYYCAARLRSYHYRYGYDYWGQGTQVTVSS”, which “polyreactivity (PSR sort gate)” value is on record?
Its value is “high polyreactivity”.

For “QVQLVESGGGLVQAGGSLRLSCDASGRTFIVYAMGWYRQEPGKERELVARISSGSRTSYADSVKGRFTISRDNAKNTVYLQMNSLKPEDTAVYYCNAREYLKPGVPYYSQQLDYWGQGTQVTVSS”, which “polyreactivity (PSR sort gate)” value is on record?
The value was “low polyreactivity”.

Which “polyreactivity (PSR sort gate)” value does the source give for “QVQLVESGGGLVQAGGSLRLSCDASGSIFDGYGMGWYRQAPGKERELVASITCNDGSTYYADSVKGRFTISRDNANNTFYLQMNSLKPEDTAVYYCASDQWGYEYDYWGQGTQVTVSS” here?
Its value is “low polyreactivity”.

Which “polyreactivity (PSR sort gate)” value does the source give for “QVQLVESGGGLVQAGGSLRLSCDASGSIFGSYAMGWYRQAPGKEWELVAAISRRGGSTYYADSVKGRFTISRDNAKNTVYLQMNSLKAEDTAVYYCARRDYGVLNKGLGQEGDYWGQGTQVTVSS” here?
Its value is “low polyreactivity”.

Which “polyreactivity (PSR sort gate)” value does the source give for “QVQLVESGGGLVQAGGSLRLSCDASGSIFNYYAMGWYRQAPGKERELVATITRGGSTYYADSVKGRFTISRDNAKNTVYLQMNILKPEDTAVYYCAKVGRSTAYQNGYDYWGQGTQVTVSS” here?
Its value is “low polyreactivity”.

Which “polyreactivity (PSR sort gate)” value does the source give for “QVQLVESGGGLVQAGGSLRLSCDASGSIFQRYAMGWYRPAPGKERELVAGINWSGGRTYYADSVKGRFTISRDNAKNTVYLQMISLKPEDTAVYYCAAARYTRYDYWGQGTQVTVSS” here?
The value was “high polyreactivity”.

Which “polyreactivity (PSR sort gate)” value does the source give for “QVQLVESGGGLVQAGGSLRLSCDASGSIFRGYAMGWYRQAPGKEREFVAAISKRSGSTYYADSVKGRFTISRDNAKNSVYLQMNSLKPEDTAVYYCAKERVAAAGGYWGQGTQVTVSS” here?
Its value is “high polyreactivity”.

For “QVQLVESGGGLVQAGGSLRLSCDASGSILWLNAMGWYRQAPGKERELVADITRGGSTYYADSVKGRFTISRDNAKNTVYLQMNSLKPEDTAVYYCAARLYGGYDWGQGTQVTVSS”, which “polyreactivity (PSR sort gate)” value is on record?
Its value is “high polyreactivity”.

Which “polyreactivity (PSR sort gate)” value does the source give for “QVQLVESGGGLVQAGGSLRLSCDASGSPFEWYGMGWYRQAPGKERELVDAITSGGSTNYADSVKGRFTISRDNAKNTVYLQMNCLKPEVPAVYYCNAEYKPYHYYKAWVYTYDYGYWGQGTQVTVSS” here?
The value was “low polyreactivity”.

Which “polyreactivity (PSR sort gate)” value does the source give for “QVQLVESGGGLVQAGGSLRLSCDASGSTFNKYAMGWYRQAPGKERELVAAITTSGGRTTYADSVKGRFTISRDNAKNTVYVQMNSLKPEDTEVYYCAARYYIHRGYDYDYWGQGTQVSVSS” here?
Its value is “high polyreactivity”.

Which “polyreactivity (PSR sort gate)” value does the source give for “QVQLVESGGGLVQAGGSLRLSCDASGSTFTFNDMGWYRQAPGKERELVAAITSGGSTTYADSVKGRFTISRDNAKNTVYLQMNSLKPEDTAVYYCAADYVYFYFYGYDSWGQGTQVTVSS” here?
The value was “low polyreactivity”.

Which “polyreactivity (PSR sort gate)” value does the source give for “QVQLVESGGGLVQAGGSLRLSCDASGSTFYSYTMGWSRQAPGKERELVATISWSGSSTYDADSVKGRFTISRDNAKNTVYLQMNSLTPEDTAVYYSAAVHYDKSAYWWWYNYWGQGTLVTVSS” here?
The value was “low polyreactivity”.

For “QVQLVESGGGLVQAGGSLRLSCDASGSTIIRNAMGWSRQAPGKERELVAAISTSGGRTHYADSVKGRFTISRDNAKNTVYLKMNSLKPEDTAVYYCATRGKGHYYYWGQGTQVTVSS”, which “polyreactivity (PSR sort gate)” value is on record?
Its value is “high polyreactivity”.
